Values of other authors in article PMC2744096.

Target: MLL (Homo sapiens) (UniProt Q03164)

In the case of CBP KIX (from UniProt Q92793), the Kd is listed as 3000 nM.
